B1: SV4: binder of SEQ ID NO: 2; SV1 with lysines at the 11th and 104th positions substituted with leucine (protein)
chain: MEEELQIIQPDLSVSVAAGESAILHCTITSLFPVGPIQWFRGAGPARVLIYNQRQGPFPRVTTVSETTKRENMDFSISISNITPADAGTYYCIKFRKGSPDTEFLSGAGTELSVRAKPS
modifications: CD47 binder SV4
B2: SV4-DSPE: DSPE-conjugated form of SV4 (NHS-activated DSPE-PEG2000 with SV4 protein) (conjugate)
chain: B1 chain
B3: NT5M (hdNT-2): human mitochondrial 5′-nucleotidase (SEQ ID NO: 32) (protein)
chain: MGGRALRVLVDMDGVLADFEGGFLRKFRARFPDQPFIALEDRRGFWVSEQYGRLRPGLSEKAISIWESKNFFFELEPLPGAVEAVKEMASLQNTDVFICTSPIKMFKYCPYEKYAWVEKYFGPDFLEQIVLTRDKTVVSADLLIDDRPDITGAEPTPSWEHVLFTACHNQHLQLQPPRRRLHSWADDWKAILDSKRPC
modifications: NT5M
B4: hdNT-1: Human cytosolic 5′deoxyribonucleotidase (protein, UniProt Q8TCD5 1-201, looked up)
5'(3')-deoxyribonucleotidase, …: MARSVRVLVDMDGVLADFEAGLLRGFRRRFPEEPHVPLEQRRGFLAREQYRALRPDLADKVASVYEAPGFFLDLEPIPGALDAVREMNDLPDTQVFICTSPLLKYHHCVGEKYRWVEQHLGPQFVERIILTRDKTVVLGDLLIDDKDTVRGQEETPSWEHILFTCCHNRHLVLPPTRRRLLSWSDNWREILDSKRGAAQRE
B5: T001: Thymidylate 5′-phosphohydrolase derived from bacteriophage PBS2, gene sequence optimized (SEQ ID NO: 3); final drug form mRNA (protein)
chain: MVFSIKEPFSIVTDCDEVLTDISPLWVHKIQQNADYFGKYFDLSKLEGLEFGTFEHYQTVLSRPEFHLNKWLRKENLVLSDEEEKELFERFYSLYDNDEFYEDCMPTKMCEGIYKLSLQKFVDKIYVVTRTSEGTKEGKRKFIETFLNSNKVEIIFVGKNEKKSDYIKNLKNVKMIVEDELSNINDIVENCNDGFEEVDTYIPSTGYNNKDIDGFNENLMKKGFNAVPYVIIERPETEEKAV
modifications: T001
notes: final drug form mRNA
B6: mdNT-1: Murine cytosolic 5′deoxyribnucleotidase (protein, UniProt Q9JM14 1-200, looked up)
5'(3')-deoxyribonucleotidase, …: MAVKRPVRVLVDMDGVLADFESGLLQGFRRRFPEEPHVPLEQRRGFLANEQYGALRPDLAEKVASVYESPGFFLNLEPIPGALDALREMNDMKDTEVFICTTPLLKYDHCVGEKYRWVEQNLGPEFVERIILTRDKTVVMGDLLIDDKDNIQGLEETPSWEHILFTCCHNQHLALPPTRRRLLSWSDNWRGIIESKRASL

Assays:
recombinant CD47 protein = recombinant CD47 protein (Homo sapiens, UniProt Q08722); test: SPR, CD47 conjugated to CM5 chip by EDC-NHS; assay type: binding
recombinant CD47 protein, sequence (Q08722 19-323): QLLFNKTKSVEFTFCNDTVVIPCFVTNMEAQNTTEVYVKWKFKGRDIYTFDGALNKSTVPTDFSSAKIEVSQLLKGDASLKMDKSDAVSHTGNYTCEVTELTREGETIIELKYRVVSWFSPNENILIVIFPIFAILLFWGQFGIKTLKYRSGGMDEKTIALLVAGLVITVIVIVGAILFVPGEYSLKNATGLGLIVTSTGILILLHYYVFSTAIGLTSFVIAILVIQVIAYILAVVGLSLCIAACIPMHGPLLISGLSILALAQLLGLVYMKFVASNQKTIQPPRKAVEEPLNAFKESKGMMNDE
Description: Specifically, the recombinant CD47 protein was conjugated to the surface of the CM5 chip by a target SPR reaction of 250 RU through an EDC-NHS reaction to be used, and for HBS-P, the sensogram obtained through a process of association for 3 minutes and dissociation for 10 minutes at a flow rate of 30 µL/minutes was analyzed with the BiaEvaluation software using a 1:1 binding model and global fitting.

dUMP = conditions: read-out: Preferred Substrate (Km), dUMP; cited from earlier work
dTMP [1] = test: 5′-nucleotidase preferred substrate Km, dTMP; assay type: biochemical; conditions: according to Table 4
dGMP = conditions: read-out: Preferred Substrate (Km), dGMP; cited from earlier work
dTMP [2] = conditions: read-out: Preferred Substrate (Km), dTMP; cited from earlier work
dAMP = conditions: read-out: Preferred Substrate (Km), dAMP; cited from earlier work
[3] = system: colon cancer cell line HCT-116; test: Trypan blue assay, cell viability and cell growth inhibition; assay type: cell-based; conditions: HCT-116, 1.25 µg mRNA, 24 hours
Description: T001 is more specific to the nucleic acid T due to its structural difference from NT5M. Therefore, nucleic acid imbalance due to the loss of dTTP rather than the overall loss of nucleic acid may have a greater effect on cancer cell metabolism and thereby inhibit the growth of cancer cells. […] Each mRNA was transfected into the colon cancer cell line HCT-116, and 24 hours thereafter, Trypan blue assay was performed and the results of cell viability and cell growth inhibition on HCT-116 are shown in FIG. 13. The specific experimental method is as follows.
HCT-116 cells were transfected with 1.25 µg each of non-mature form NT5M, mature form NT5M, and CT mRNA. After 24 hours, the resultants were each treated with trypsin and the cells were harvested using a centrifuge. After resuspending the harvested cells with 1× DPBS, a certain amount of cells were mixed with trypan blue reagent at a 1:1 ratio. After incubation for 2 minutes at room temperature (RT), the number of cells was counted using a hemocytometer. After obtaining the number of cells stained and unstained with the trypan blue reagent, the number of viable and non-viable cells was obtained, and then divided by the total number of cells to obtain the viability. Each experiment was repeated three or more times to evaluate the significance.

[4] = CM5 chip, CD47 250 RU, 30 µL/minutes

Molecule | binding activity when conjugated with DSPE and when inserted into liposomes (recombinant CD47 protein) | ka (recombinant CD47 protein; [4]) | kd (recombinant CD47 protein; [4]) | Km (dUMP) | affinity for dTMP lower than T001 (dTMP [1]) | Km (dGMP) | Km (dTMP [2]) | Km (dAMP) | effect on cells (cell viability and cell growth inhibition) [3]
B1 | maintained within the error range | 164000 M⁻¹ s⁻¹ | 0.000275 s⁻¹ |  |  |  |  |  | 
B2 |  |  | 0.000256 s⁻¹ |  |  |  |  |  | 
B3 |  |  |  | 160 µM | 30 times | 90 µM | 300 µM |  | 
B4 |  |  |  | 1500 µM |  | 3300 µM | 1500 µM | 3000 µM | 
B5 |  |  |  | 800 µM |  | 700 µM | 10 µM |  | greater than that of human NT5M
B6 |  |  |  | 800 µM |  | 1200 µM | 1400 µM | 1000 µM | 
